Reference: US20260070976A1 (Alector, published 2026)

Legend:
[1] = molecular target: T1, human PILRA G78 on HEK293F cells (human, UniProt Q9UKJ1 20-303); experiment: hA Kd of Table 9; method not stated (Example 8: HEK293F overexpressing cells, FACS)
T1 construct: also called hA; G78 OE

[2] = molecular target: T2, cell surface PILRA on human monocytes (human, UniProt Q9UKJ1 20-303); experiment: flow cytometry; Alexa Fluor 647-conjugated antibody on human CD14+ monocytes (second donor sample), Fc receptors blocked, 30 min on ice
T2 construct: Native PILRA on CD14+ monocytes of healthy donors; also called human PILRA; hu mono
T2 sequence (Q9UKJ1 20-303): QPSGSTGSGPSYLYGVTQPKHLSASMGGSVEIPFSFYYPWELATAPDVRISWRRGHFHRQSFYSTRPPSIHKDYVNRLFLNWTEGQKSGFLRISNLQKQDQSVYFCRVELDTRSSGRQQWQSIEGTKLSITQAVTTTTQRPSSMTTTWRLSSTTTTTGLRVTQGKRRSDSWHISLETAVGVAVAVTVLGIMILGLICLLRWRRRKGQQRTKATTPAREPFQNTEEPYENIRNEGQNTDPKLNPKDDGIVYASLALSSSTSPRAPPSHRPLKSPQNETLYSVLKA
Experimental: Anti-human PILRA antibodies X0 (PA-29) and its affinity matured variants were tested for their abilities to bind cell surface PILRA on human and cynomolgus monocytes. CD14+ monocytes were isolated from healthy human donors using a RosetteSep Human Monocyte Enrichment Cocktail kit (StemCell). Cynomolgus white blood cells were collected from cynomolgus whole blood. In both human and cynomolgus samples, the Fc receptor on the tested monocytes was blocked and the monocytes were treated with Alexa Fluor 647-conjugated PILRA antibodies for 30 minutes on ice. A dose response curve of antibodies X0 (PA-29), X1, X2, X7, X11, X12, X13, X14, X16, X18, and X20 was tested for binding to cell surface PILRA in human and cynomolgus monocytes, and antibodies bound to PILRA in a dose response manner. In another sample of human donor monocytes, a dose response curve of antibodies X0 (PA-29), X1, X2, X11, X13, X18, X29 (PA-43), and X34 (A6) was tested for binding to cell surface PILRA in human and cynomolgus monocytes, and antibodies bound to PILRA in a dose response manner.

recombinant human PILRA = recombinant human PILRA (human, UniProt Q9UKJ1 20-197); experiment: SPR, Carterra LSA, antibody amine-coupled, kinetic fit
Sequence of recombinant human PILRA (Q9UKJ1 20-197 limits assumed): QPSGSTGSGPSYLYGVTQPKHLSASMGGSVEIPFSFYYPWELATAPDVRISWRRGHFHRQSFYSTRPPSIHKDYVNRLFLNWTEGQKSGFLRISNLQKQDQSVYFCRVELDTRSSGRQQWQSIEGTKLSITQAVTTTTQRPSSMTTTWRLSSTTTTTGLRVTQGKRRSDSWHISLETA

[3] = molecular target: T3, recombinant cynomolgus PILRA (SEQ ID NO:120) (cynomolgus monkey); experiment: as above
T3 construct: also called cyno PILRA
T3 sequence (chain, as listed by the source limits assumed): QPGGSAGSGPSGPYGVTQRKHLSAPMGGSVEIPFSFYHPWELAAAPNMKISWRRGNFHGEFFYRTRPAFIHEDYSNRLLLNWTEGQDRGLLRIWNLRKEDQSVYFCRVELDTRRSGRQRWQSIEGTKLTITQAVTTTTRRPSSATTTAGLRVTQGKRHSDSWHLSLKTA

[4] = molecular target: T1, human PILRA G78 on HEK293F cells; experiment: flow cytometry; HEK293F cells overexpressing human PILRA, goat anti-human IgG Alexa Fluor 647
Experimental: (§1) Conditioned media samples containing the tested anti-PILRA antibodies were assessed for binding to HEK293F cells overexpressing human PILRA (hA), human PILRB (hB), and cynomolgus PILRA (cA) by FACS. The conditioned media containing the tested antibodies were incubated with the cells for 30 min at 4° C., washed twice, and then detected with goat anti-human IgG secondary antibody (Alexa Fluor 647) at 1:1000 dilution. The cells were analyzed by flow cytometry on FACS Canto II, and for all cell lines, the reported MFI values were calculated for each conditioned media. These antibodies were evaluated for nonspecific binding using a baculovirus particle (BVP) assay (Jain T., Sun T., Durand S., Hall A., Houston N. R., Nett J. H., Sharkey B., Bobrowicz B., Caffry L, Yu Y., et al. Biophysical properties of the clinical-stage antibody landscape. Proc. Natl. Acad. Sci. USA. 2017; 114:944-949. Doi: 10.1073/pnas.1616408114.). The BVP scores are listed in Table 9, and the higher the score the more nonspecific binding that occurred.

[5] = molecular target: T4, human PILRB on HEK293F cells (human, UniProt Q9UKJ0 20-227); experiment: hB Kd of Table 9; method not stated (Example 8: HEK293F overexpressing cells, FACS)
T4 construct: also called hB
T4 sequence (Q9UKJ0 20-227): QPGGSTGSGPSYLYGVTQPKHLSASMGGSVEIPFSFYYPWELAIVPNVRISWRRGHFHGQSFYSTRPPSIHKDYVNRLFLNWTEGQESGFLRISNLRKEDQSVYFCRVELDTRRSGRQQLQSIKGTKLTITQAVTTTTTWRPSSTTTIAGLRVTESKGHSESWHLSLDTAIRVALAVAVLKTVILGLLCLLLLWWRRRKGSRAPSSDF

[6] = molecular target: T1, human PILRA G78 on HEK293F cells; experiment: FACS on HEK293F cells, binding on human PILRA (hA) over human PILRB (hB)
Experimental: as §1

recombinant human PILRB = recombinant human PILRB (human, UniProt Q9UKJ0 20-191); experiment: SPR, Carterra LSA, steady-state fit
Sequence of recombinant human PILRB (Q9UKJ0 20-191 limits assumed): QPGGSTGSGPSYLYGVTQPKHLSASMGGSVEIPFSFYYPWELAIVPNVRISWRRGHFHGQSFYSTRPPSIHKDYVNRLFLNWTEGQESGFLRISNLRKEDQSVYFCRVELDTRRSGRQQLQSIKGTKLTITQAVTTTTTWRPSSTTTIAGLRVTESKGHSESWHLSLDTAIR

[7] = molecular target: cynomolgus PILRA on HEK293F cells (cynomolgus monkey, UniProt A0A7N9CRU1 20-292); experiment: flow cytometry; HEK293F cells overexpressing cynomolgus PILRA, goat anti-human IgG Alexa Fluor 647
Sequence of cynomolgus PILRA on HEK293F cells (A0A7N9CRU1 entry or part of it): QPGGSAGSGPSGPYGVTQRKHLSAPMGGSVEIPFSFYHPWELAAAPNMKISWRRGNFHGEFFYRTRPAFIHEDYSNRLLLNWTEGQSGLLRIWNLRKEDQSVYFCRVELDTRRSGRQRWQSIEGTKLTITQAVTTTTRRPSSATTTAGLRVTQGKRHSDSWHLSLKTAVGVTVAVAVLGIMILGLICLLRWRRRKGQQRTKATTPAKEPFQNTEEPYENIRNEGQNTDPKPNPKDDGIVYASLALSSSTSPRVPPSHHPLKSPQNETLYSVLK

[8] = molecular target: T1, human PILRA G78 on HEK293F cells; experiment: flow cytometry blocking assay; antibody on HEK293F cells overexpressing human PILRA G78, then 5 ug/mL NPDC1 Fc as the blocked ligand; cell-bound NPDC1 Fc read as MFI
Experimental: A dose response curve of antibodies X0 (PA-29), X1, X2, X7, X11, X12, X13, X14, X16, X18, and X20 was assessed for modulating the binding of Neural Proliferation Differentiation and Control Protein 1 (NPDC1) Fc to 293 cells ectopically expressing human PILRA (HEK293F human PILRA G78 overexpressing cells). Conditioned media samples containing antibodies were incubated with human PILRA overexpressing cells for 30 minutes at 4° C., and then 5 μg/mL NPDC1 Fc was added to this mixture. After 30 minutes of incubation at 4° C., the cells were washed and cell-bound NPDC1 Fc was detected with anti-human IgG Alexa Fluor 647. The cells were analyzed by flow cytometry on FACS Canto II with the percentage of NPDC1 Fc binding in the presence of conditioned media relative to NPDC1 Fc binding alone was calculated. […] All tested antibodies decreased binding of NPDC1 to human PILRA.

T1 sequence (Q9UKJ1 20-303 R78G): as the sequence (Q9UKJ1 20-303) above, with R59G counted along it

Kd [1]: 0.2 nM
EC50 (read off the curve) [2]: ~0.1 µg/mL
Kd (recombinant human PILRA): 1.1 nM
Kd [3]: 0.3 nM
EC50 (read off the curve) [4]: ~0.3 µg/mL
Kd [5]: 51.5 nM
hA/hB binding ratio on HEK293F [6]: 20.3
Kd (recombinant human PILRB): 18 nM
EC50 (read off the curve) [7]: ~0.5 µg/mL
IC50 (read off the curve) [8]: ~0.08 µg/mL
B1: X13 (antibody, human IgG4, V domains shown)
VH: QVQLVQSGAEVKKPGSSVKVSCKASGYNFLHYDVNWVRQAPGQGLEWMGGIIPIFGTANYAQKFQGRVTITADESTSTAYMELSSLRSEDTAVYYCATAVGAGWFDPWGQGTLVTVSS
VL: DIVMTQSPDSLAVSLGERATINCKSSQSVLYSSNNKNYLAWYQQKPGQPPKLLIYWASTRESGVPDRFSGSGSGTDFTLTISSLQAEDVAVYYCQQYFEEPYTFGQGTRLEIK
notes: conditioned media in the HEK293F assays
